{"source": "patent US20230263906A1", "about": "“HIGH AFFINITY IL-2 RECEPTOR AGONISTS AND SYNTHETIC NANOCARRIER DOSE SPARING” (Selecta Biosciences, Inc., priority 2022, published 2023)", "molecules": {"B1": {"name": "ovalbumin (protein, UniProt P01012 2-386, looked up)", "Ovalbumin": "GSIGAASMEFCFDVFKELKVHHANENIFYCPIAIMSALAMVYLGAKDSTRTQINKVVRFDKLPGFGDSIEAQCGTSVNVHSSLRDILNQITKPNDVYSFSLASRLYAEERYPILPEYLQCVKELYRGGLEPINFQTAADQARELINSWVESQTNGIIRNVLQPSSVDSQTAMVLVNAIVFKGLWEKAFKDEDTQAMPFRVTEQESKPVQMMYQIGLFRVASMASEKMKILELPFASGTMSMLVLLPDEVSGLEQLESIINFEKLTEWTSSNVMEERKIKVYLPRMKMEEKYNLTSVLMAMGITDVFSSSANLSGISSAESLKISQAVHAAHAEINEAGREVVGSAEAGVDAASVSEEFRADHPFLFCIKHIATNAVLFFGRCVSP", "notes": "model antigen"}}, "test_system": "Ovalbumin-specific OTII T cells", "experiment": "Example 5: adoptive transfer of ovalbumin-specific OTII T cells, Foxp3 expression", "assay_type": "in vivo, mice", "details": "OTII T cells adoptively transferred prior to treatment", "procedure": "However, expansion of antigen-specific Treg can be more desirable than expansion of total Treg. The ability of ImmTOR plus antigen combined with IL-2 mutein to induce and/or expand antigen-specific Treg was evaluated. Ovalbumin-specific OTII T cells were adoptively transferred into mice prior to treatment with ovalbumin and ImmTOR and/or IL-2 mutein."}
{"molecule": "B1", "values": [{"measurement": "percentage of Foxp3+OTII cells", "value": "~6", "unit": "%"}]}
